Experimental data as given in US20110165265A1, “TRAIL VARIANTS FOR TREATING CANCER” (FUNDACIÓ GENÒMICA (CRG), priority 2007, published 2011).

T1: DcR1 (Homo sapiens, UniProt O14798)
T1 construct: soluble, recombinant DcR1-Ig (sDcR1) and DcR2-Ig (sDcR2); purchased R&D Systems
T1 sequence (O14798 26-236 limits assumed): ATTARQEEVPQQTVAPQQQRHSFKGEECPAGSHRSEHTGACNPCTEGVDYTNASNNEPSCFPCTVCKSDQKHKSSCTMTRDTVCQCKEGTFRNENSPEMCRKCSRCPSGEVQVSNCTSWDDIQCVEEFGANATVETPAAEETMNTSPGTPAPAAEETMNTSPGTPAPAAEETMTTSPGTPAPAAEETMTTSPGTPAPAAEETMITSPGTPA

T2: DcR2 (Homo sapiens, UniProt Q9UBN6)
T2 construct: soluble, recombinant DcR1-Ig (sDcR1) and DcR2-Ig (sDcR2); purchased R&D Systems
T2 sequence (Q9UBN6 56-211 limits assumed): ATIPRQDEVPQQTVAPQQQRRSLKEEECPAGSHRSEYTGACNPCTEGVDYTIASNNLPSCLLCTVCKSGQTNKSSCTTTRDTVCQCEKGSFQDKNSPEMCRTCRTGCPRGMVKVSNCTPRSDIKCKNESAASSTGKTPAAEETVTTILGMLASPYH


Assays:
Colo205 cells [1] = test: Cell survival / sensitivity of Colo205; assay type: cell-based; conditions: Colo205
Experimental: (B) Effect of increasing concentrations of Aspirin on cell viability. (C) Effect of increasing concentrations of 5-Flurouracil on cell viability. (D) Combination therapy with 5 mM Aspirin pre-incubated for 24 h lead to further decreases in cell viability in cells treated with both TRAIL and two of the DR5 mutants. (E) 30 minute incubation of DR5 mutants, were sufficient decrease cell viability which was further augmented when cells were pre-incubated for 24 h with Aspirin. The shorter incubation period lead to a decrease potency of TRAIL alone or in combination with Aspirin. […] (G) 30 min incubation of the DR5 mutant was sufficient to decrease cell viability which was not enhanced by 5-Flurouracil, and once again the decease potency of TRAIL is seen. Proteins are indicated as follows: TRAIL stands for rhTRAIL WT; D269H stands for rhTRAIL carrying mutation D269H; E195R stands for rhTRAIL carrying mutations D269H and E195R; and M1 stands for rhTRAIL carrying mutations D269H, E194I and I196S.
TRAIL-induced cell death as a function of concentration was measured with the MTS assay.

SW948 cells = test: Cell survival / sensitivity of SW948; assay type: cell-based
LoVo cells = test: Cell survival / sensitivity of LoVo; assay type: cell-based
Source text: C) Effect of increasing concentration of 5-Flurouracil on Lovo cells.

Caski cells = test: Cell survival / sensitivity of Caski; assay type: cell-based
HeLa cells = test: Cell survival / sensitivity of HeLa; assay type: cell-based
Experimental: (B) Effect of increasing of Bortezomib on cell viability. Hela cells appear to tolerate higher concentration of Bortezomib compared to Caski and SIHA cells (C) Combination therapy with 10 nM Bortezomib incubated for 24 h lead to further decreases in cell viability in cells treated with both TRAIL and two of the DR5 mutants (D) Radiation therapy in combination with TRAIL or the DR5 mutants further decrease cell viability in HELA cells. The DR5 mutant show decrease cell viability at lower concentration of ligand compared to TRAIL.

Colo205 cells [2] = test: MTT cytotoxicity and DR4/DR5 neutralizing antibodies in Colo205; assay type: cell-based, human; conditions: Colo205, at a lower concentration (FIG. 8C)
Experimental: To assess the biological activity related to DR5 binding, various cancer cells were used. Colo205 colon carcinoma cells and ML-1 […] myeloid leukemia cells express all four TRAIL receptors on the cell surface, as shown by using FACS analysis (FIG. 7), and are sensitive to TRAIL-induced apoptosis. To test the involvement of DR4 versus DR5 in TRAIL-induced cell death, Colo205 cells were treated with neutralizing anti-DR4 or anti-DR5 antibody for 1 h before the addition of TRAIL. […] In contrast, the DR4 pathway is the major mediator of TRAIL-induced apoptosis in ML-1 cells (FIG. 8A.) To examine whether the DR5-specific TRAIL variants induce cell death in Colo205 cells by way of the DR5 receptor, 1 μg/ml neutralizing anti-DR4 or -DR5 antibodies were administered 1 h before ligand treatment.
(§1) Colo205 and ML-1 cells were then treated with increasing concentrations of TRAIL or the DR5-specific variants D269H, D269HE195R, and D269H/T214R, and their cytotoxic potential was measured with a 3-(4,5-dimethylthiazol-2-yl)-2,5-diphenyl tetrazolium bromide (MTT) assay.

A2780 cells [3] = test: Annexin V apoptosis assay in A2780; assay type: cell-based, human; conditions: A2780 ovarian cancer cells
A2780 cells [4] = test: MTT cytotoxicity in A2780 (Example 6); assay type: cell-based; conditions: A2780 (FIG. 8E)
ML-1 cells = test: Cytotoxicity in ML-1 cells; assay type: cell-based
Experimental: as §1

DcR1 = biological target: T1, DcR1; test: SPR receptor binding assay, immobilized DcR1-Ig; conditions: 0.1-250 nM ligand
Experimental: (§2) The response data (in response units) as a function of TRAIL concentration were fitted using a four parameter equation to give an apparent pre-steady state affinity constant.
(§3) Binding experiments were performed at 37° C. using a surface plasmon resonance-based biosensor (Biacore 3000, Biacore AB, Uppsala, Sweden) as previously described^10. In short, DcR1-Ig and DcR2-Ig receptor chimeras (R&D Systems) were captured at a 35 μl/min flow rate using a protein A (Sigma) modified CM5 sensor chip (Biacore). Receptor chimeras were captured at a level of ˜500-800 response units (RU). […] Binding of ligands to the receptors was monitored in real-time. Between injections the protein A sensor surface was regenerated using a 30s pulse of 0.1 M glycine 0.5 M NaCl pH 3. Due to the very slow dissociation of the TRAIL-receptor complex, only pre-steady state binding data could be obtained. In order to obtain data that represent proper high-affinity complex formation, the response at each concentration was recorded 30 sec after the end of the injection. The response data (in response units) as a function of TRAIL concentration were fitted using a four parameter equation to give an apparent pre-steady state affinity constant.
(§4) Affinity of the ligands was assessed by measuring receptor binding in a concentration range of 0.1-250 nM.

DcR2 = biological target: T2, DcR2; test: SPR receptor binding assay, immobilized DcR2-Ig; conditions: 0.1-250 nM ligand
Experimental: as §2, §3, §4

Colo205 cells [5] = test: Colo205 apoptosis after pre-incubation of ligand with soluble receptor-Ig; assay type: cell-based, human; conditions: 10 ng/ml ligand
Experimental: (A) Effect of soluble recombinant DcR1-Ig (sDcR1) on apoptosis induction by TRAIL and DR5-selective variants. […] All graphs are representatives of two independent repeats. (D) Neutralizing antibodies against DcR1 and DcR2 can augment wtTRAIL- but not DR5-variant induced cell death. […] Induction of apoptosis was measured 3 h post-treatment using Annexin V assay. […] The graphs show the average±SEM of three independent experiments.
Induction of cell death was assessed by Annexin V assay 3 h after treatment (FIG. 14), as described above. […] (FIG. 14C). This confirms that the observed differences in blocking efficacy are due to reduced ability of the decoy receptors to bind and inhibit D269H and D269HE195R.

Human dermal fibroblasts = test: MTT viability of human dermal fibroblasts; assay type: cell-based; conditions: 50-500 ng/ml, 24 h
Experimental: (§5) Human dermal fibroblasts were grown in low glucose DMEM (Sigma) supplemented with 10% fetal calf serum, 50 U/ml penicillin and […] streptomycin; human umbilical vein endothelial cells (HUVEC, PromoCell) were cultured in Endothelial Cell Growth Medium with SupplementMix (PromoCell). Fibroblasts and HUVEC cells were seeded at 1.3×10^5 cells/ml 24 h before treatment with increasing concentrations of TRAIL and DR5-selective variants, D269H and D269HE195R (50-500 ng/ml) for 24 h and cell viability was measured using MTT assay, wherein 200 μg/ml MTT (3-(4,5-dimethylthiazo1-2-yl)-2,5-diphenyl-tetrazolium bromide) was added to control and treated cells and incubated for 3 h at 37° C. The reaction was stopped and the purple formazan precipitate formed was dissolved using dimethyl sulfoxide (DMSO) and the colour intensity was measured at 550 nm on a Wallac multilabel counter. The control value corresponding to untreated cells was taken as 100% and the viability of treated samples was expressed as a percentage of the control. (FIG. 15).

[6] = system: human umbilical vein endothelial cells (HUVEC); test: Viability of HUVEC; assay type: cell-based; conditions: 50-500 ng/ml, 24 h, MTT
Experimental: as §5

DR5 = biological target: T3, DR5 (Homo sapiens, UniProt O14763); conditions: earlier work referred to; cited from earlier work
T3 construct: Effect of soluble recombinant DR5-Ig (sDR5) on apoptosis induction

DR4 = biological target: T4, DR4 (Homo sapiens, UniProt O00220); conditions: earlier work referred to; cited from earlier work
T4 construct: the more commonly used dimeric TRAIL-receptor-IgG Fc chimeric constructs
T4 sequence (O00220 24-239 limits assumed): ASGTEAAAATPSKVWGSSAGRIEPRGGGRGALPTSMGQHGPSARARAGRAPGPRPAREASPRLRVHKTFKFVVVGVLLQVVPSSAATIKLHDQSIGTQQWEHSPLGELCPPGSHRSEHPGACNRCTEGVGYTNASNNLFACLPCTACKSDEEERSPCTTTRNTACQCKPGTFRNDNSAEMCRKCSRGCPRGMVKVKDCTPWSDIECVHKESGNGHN

| Molecule | cell viability, single agent (Colo205 cells [1]) | cell viability, single agent (SW948 cells) | cell viability, single agent (LoVo cells) | cell viability, single agent (Caski cells) | cell viability, single agent (HeLa cells) | increase of apoptosis rate compared to wtTRAIL (Colo205 cells [2]) | increase in apoptosis / efficiency compared to wtTRAIL (A2780 cells [3]) | cytotoxic activity compared with wild-type TRAIL (A2780 cells [4]) | cell death induction (ML-1 cells) | binding towards DcR1, reduction compared to wtTRAIL (DcR1) | binding toward DcR2 compared to wtTRAIL (DcR2) | effect of pre-incubation with sDcR2 on apoptosis induction (Colo205 cells [5]) | effect of pre-incubation with sDcR1 on pro-apoptotic activity (Colo205 cells [5]; sDcR1 up to 2 μg/ml) | cell viability (Human dermal fibroblasts) | cell viability [6] | affinity for the DR5 receptor (DR5) | binding to DR4 (DR4) |
| --- | --- | --- | --- | --- | --- | --- | --- | --- | --- | --- | --- | --- | --- | --- | --- | --- | --- |
| M1: rhTRAIL carrying mutations D269H, E194I and I196S (protein, UniProt P50591 1-281, looked up, variant D269H E194I I196S) Tumor necrosis factor ligand …: MAMMEVQGGPSLGQTCVLIVIFTVLLQSLCVAVTYVYFTNELKQMQDKYSKSGIACFLKEDDSYWDPNDEESMNSPCWQVKWQLRQLVRKMILRTSEETISTVQEKQQNISPLVRERGPQRVAAHITGTRGRSNTLSSPNSKNEKALGRKINSWESSRSGHSFLSNLHLRNGELVIHEKGFYYIYSQTYFRFQIESKENTKNDKQMVQYIYKYTSYPDPILLMKSARNSCWSKDAEYGLYSIYQGGIFELKENDRIFVSVTNEHLIDMHHEASFFGAFLVG | significantly less cell viability than TRAIL | decreased cell viability | equal decrease in cell viability | comparable | comparable | – | – | – | – | – | – | – | – | – | – | – | – |
| D269HT214R: TRAIL variant containing mutations D269H and T214R (protein, UniProt P50591 1-281, looked up, variant D269H T214R) Tumor necrosis factor ligand …: MAMMEVQGGPSLGQTCVLIVIFTVLLQSLCVAVTYVYFTNELKQMQDKYSKSGIACFLKEDDSYWDPNDEESMNSPCWQVKWQLRQLVRKMILRTSEETISTVQEKQQNISPLVRERGPQRVAAHITGTRGRSNTLSSPNSKNEKALGRKINSWESSRSGHSFLSNLHLRNGELVIHEKGFYYIYSQTYFRFQEEIKENTKNDKQMVQYIYKYRSYPDPILLMKSARNSCWSKDAEYGLYSIYQGGIFELKENDRIFVSVTNEHLIDMHHEASFFGAFLVG | – | – | – | – | – | 1.5 fold | 2 fold | significantly increased | only TRAIL was able to induce cell death | – | – | – | – | – | – | – | – |
| D269H: rhTRAIL carrying mutation D269H; DR5-selective TRAIL variant (protein) MVRERGPQRVAAHITGTRGRSNTLSSPNSKNEKALGRKINSWESSRSGHSFLSNLHLRNGELVIHEKGFYYIYSQTYFRFQEEIKENTKNDKQMVQYIYKYTSYPDPILLMKSARNSCWSKDAEYGLYSIYQGGIFELKENDRIFVSVTNEHLIDMHHEASFFGAFLVG | significantly less cell viability than TRAIL | decreased cell viability | equal decrease in cell viability | comparable | comparable | – | 3-4 fold | significantly increased | only TRAIL was able to induce cell death | approximately 20 fold | reduced | only at a two fold higher concentration than for wtTRAIL | failed to reduce | did not result in a decrease in cell viability | did not result in a decrease in cell viability | increased | highly reduced |
